One experiment deals with factor X (UniProt P00742).
For the next experiment, the target named is factor Xa (UniProt P00742).

Sequence of daboxin P (C0HK16 whole entry): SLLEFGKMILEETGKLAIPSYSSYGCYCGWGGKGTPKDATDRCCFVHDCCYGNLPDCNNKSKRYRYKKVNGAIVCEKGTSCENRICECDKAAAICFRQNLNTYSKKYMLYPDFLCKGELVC

In the case of alkylated daboxin P (enzyme), in the experiment with factor X, the residual activity of ETC treated with alkylated daboxin P (3 uM) came out at 23% and the residual activity of ITC treated with alkylated daboxin P (3 uM) turned out to be 19%.

For the substance daboxin P (enzyme), the residual activity of the prothrombinase complex (thrombin formation, S-2238) when daboxin P was pre-incubated with FXa followed by addition of FVa in the experiment with factor Xa came out at 11.3%. Also, in the experiment with factor X, the IC50 of inhibition of FXa generation by the extrinsic tenase complex (ETC), in the presence of phospholipids, chromogenic substrate S-2222 came to 0.43 nM; the IC50 of inhibition of FXa generation by the intrinsic tenase complex (ITC), in the presence of phospholipids, chromogenic substrate S-2222 came out at 39.2 nM; the residual activity of ETC (with phospholipids) upon treatment with 3 uM of daboxin P amounted to 9.05%; the residual activity of ETC reconstituted without phospholipid, treated with daboxin P is 25%. In the experiment with factor X, this substance showed a residual activity of ITC (with phospholipids) upon treatment with 3 uM of daboxin P of 2.8% and a residual activity of ITC reconstituted without phospholipid, treated with daboxin P of 20.1%.
